These results are taken from patent publication US20240109965A1 (Ablynx, published 2024).

Where a chain is given by its changes, count along the chain named.

T1: cynomolgus TCRαβ-zipper protein (cynomolgus)
T1 construct: also called cyTCR(AEA41865)-zipper; CynoTCRαβ-zipper
T1 TCR alpha: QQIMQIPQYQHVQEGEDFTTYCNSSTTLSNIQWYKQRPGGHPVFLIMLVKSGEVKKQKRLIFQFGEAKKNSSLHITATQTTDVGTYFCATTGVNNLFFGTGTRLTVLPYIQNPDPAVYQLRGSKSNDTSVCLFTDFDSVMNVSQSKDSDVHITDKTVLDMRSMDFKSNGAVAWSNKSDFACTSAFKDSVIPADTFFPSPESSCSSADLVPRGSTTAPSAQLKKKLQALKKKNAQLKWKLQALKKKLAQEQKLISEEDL
T1 TCR beta: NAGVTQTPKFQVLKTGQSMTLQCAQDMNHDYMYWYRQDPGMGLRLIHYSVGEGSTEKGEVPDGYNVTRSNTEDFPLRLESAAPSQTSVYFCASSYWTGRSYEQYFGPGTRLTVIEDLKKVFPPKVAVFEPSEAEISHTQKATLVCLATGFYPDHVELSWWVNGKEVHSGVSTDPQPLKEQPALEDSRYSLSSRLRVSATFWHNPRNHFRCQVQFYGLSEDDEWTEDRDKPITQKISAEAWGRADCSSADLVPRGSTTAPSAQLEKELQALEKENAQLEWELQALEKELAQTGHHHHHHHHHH

B1: T017001022 (bispecific antibody)
chain: DVQLVESGGGVVQPGGSLRLSCVASGYVHKINFYGWYRQAPGKEREKVAHISIGDQTDYADSAKGRFTISRDESKNTVYLQMNSLRPEDTAAYYCRALSRIWPYDYWGQGTLVTVSSGGGGSGGGSEVQLVESGGGVVQPGGSLRLSCAASGTTLDYYVIGWFRQAPGKEREGVSCISSSDGYTYYADSVKGRFTISRDNAKNTVYLQMNSLRPEDTALYYCATDPYYSSCHPFFADYEYDYWGQGTLVTVSSGGGGSGGGSEVQLVESGGGVVQPGGSLRLSCAASGFTFRSFGMSWVRQAPGKGPEWVSSISGSGSDTLYADSVKGRFTISRDNSKNTLYLQMNSLRPEDTALYYCTIGGSLSRSSQGTLVTVSS
B2: T017001026 (bispecific antibody)
chain: B1 chain with D61E, W102Q
B3: T017001023 (bispecific antibody)
chain: B1 chain with D61E, W102Y
B4: T017001024 (bispecific antibody)
chain: B1 chain with D61E, W102T
B5: T017001025 (bispecific antibody)
chain: B1 chain with D61E, W102S
B6: T017001028 (bispecific antibody)
chain: EVQLVESGGGVVQPGGSLRLSCAASGTTLDYYVIGWFRQAPGKEREGVSCISSSDGYTYYADSVKGRFTISRDNAKNTVYLQMNSLRPEDTALYYCATDPYYSSCHPFFADYEYDYWGQGTLVTVSSGGGGSGGGSEVQLVESGGGVVQPGGSLRLSCVASGYVHKINFYGWYRQAPGKEREKVAHISIGDQTDYAESAKGRFTISRDESKNTVYLQMNSLRPEDTAAYYCRALSRIYPYDYWGQGTLVTVSSGGGGSGGGSEVQLVESGGGVVQPGGSLRLSCAASGFTFRSFGMSWVRQAPGKGPEWVSSISGSGSDTLYADSVKGRFTISRDNSKNTLYLQMNSLRPEDTALYYCTIGGSLSRSSQGTLVTVSS
B7: T017001027 (bispecific antibody)
chain: B6 chain with E197D, Y238W
B8: T017001030 (bispecific antibody)
chain: B6 chain with Y238S
B9: T017001031 (bispecific antibody)
chain: B6 chain with Y238Q
B10: T017001029 (bispecific antibody)
chain: B6 chain with Y238T
B11: T017000976 (VHH)
VHH: EVQLVESGGGVVQPGGSLRLSCVASGYVHKINFYGWYRQAPGKEREKVAHISIGDQTDYARSAKGRFTISRDESKNTVYLQMNSLRPEDTAAYYCRALSRIYPYDYWGQGTLVTVSS
B12: T017000978 (VHH)
VHH: B11 VHH with R61E
notes: also called T01700978
B13: T017000977 (VHH)
VHH: B11 VHH with R61V
B14: T017001001 (VHH)
VHH: B11 VHH with R61E, Y102T
B15: T017000981 (VHH)
VHH: B11 VHH with R61S
B16: T017000999 (VHH)
VHH: B11 VHH with R61E, Y102S
notes: also called T01700999
B17: T017000980 (VHH)
VHH: B11 VHH with R61Q
B18: T017000995 (VHH)
VHH: B11 VHH with R61E, Y102Q
B19: T017000979 (VHH)
VHH: B11 VHH with R61A

The target of the first assay is human T cell receptor (TCRαβ) on primary human T cells (human). The assay can be described thus: cell-based or functional assay.
Chain of human T cell receptor (TCRαβ) on primary human T cells (human) (P0DTU3 134-275, chain 1 of 2): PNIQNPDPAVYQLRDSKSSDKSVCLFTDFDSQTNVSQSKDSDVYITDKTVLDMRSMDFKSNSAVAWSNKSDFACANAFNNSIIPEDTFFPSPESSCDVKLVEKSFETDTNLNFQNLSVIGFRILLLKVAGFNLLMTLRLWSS
Chain of human T cell receptor (TCRαβ) on primary human T cells (human) (P01850 other isoform, or with tags, fused parts or gaps, chain 2 of 2, further chain): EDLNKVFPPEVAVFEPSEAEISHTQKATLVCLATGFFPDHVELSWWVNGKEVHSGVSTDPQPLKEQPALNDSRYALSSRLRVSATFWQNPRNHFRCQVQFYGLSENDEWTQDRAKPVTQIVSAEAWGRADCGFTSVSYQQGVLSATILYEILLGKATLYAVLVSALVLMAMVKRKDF
Regarding B1, the “EC50 (M), human T cell mediated MOLM-13 cell killing, Donor #1” value (shortened to “EC50 (M) … Donor #1”) amounted to 1.5e-11 M and the “EC50 (M), human T cell mediated MOLM-13 cell killing, Donor #2” value (shortened to “EC50 (M) … Donor #2”) amounted to 1.4e-10 M.
The like results for B2 were, in that order, 3.4e-10 M and 4.4e-09 M.
As for B3, the “EC50 (M) … Donor #1” value stood at 2.4e-11 M and the “EC50 (M) … Donor #2” value was 1.1e-10 M.
For B4, the “EC50 (M) … Donor #2” value amounted to 9.8e-10 M.
Turning to B5, the “EC50 (M) … Donor #1” value amounted to 6.6e-11 M and the “EC50 (M) … Donor #2” value was found to be 3.4e-10 M.
With B6, the “EC50 (M) … Donor #1” value worked out at 6.7e-10 M and the “EC50 (M) … Donor #2” value came out at 3.2e-09 M.
The matching figures for B7: 5.7e-10 M and 2.8e-09 M.
In the case of B8, the “EC50 (M) … Donor #1” value is 5.8e-09 M.

For the next assay, the target named is T1, cynomolgus TCRαβ-zipper protein. The experiment in a line: SPR Biacore 8K+, multi-cycle kinetics, TCR-zipper immobilized. Background: In SPR one partner is held on a chip, and binding of the other changes the refractive index at the surface.
Method: Binding of purified TCE-CD123-ALB and CD123-TCE-ALB ISVD constructs to human TCRαβ-zipper protein (huTCR(2XN9)-zipper, in-house produced) and cynomolgus TCRαβ-zipper protein (cyTCR(AEA41865)-zipper, in-house produced) was probed by Surface Plasmon Resonance (SPR) (Cytiva, Biacore 8K+). Both targets were immobilized on a CM5 sensor chip using standard amine coupling chemistry. […] Each concentration of the ISVDs was injected for 180s and dissociation was assessed during 600s.
Data was double referenced by subtracting a reference flow cell (FC) and a blank buffer injection. Affinity constants (ka, kd and KD) were calculated applying the Langmuir 1:1 interaction model using the Biacore Insight Evaluation Software (Cytiva, Version 3.0.12.15655).
Molecule B1 came in with a Kd of 15 nM.
On to B2, for which the affinity, expressed as Kd, was 3900 nM.
Same read-out and setting: for B3 the value was 37 nM.
Regarding B4, binding was put at a Kd of 2400 nM.
For the molecule B5, the Kd amounted to 780 nM.
In the case of B6, binding was characterised by a dissociation constant (Kd) of 400 nM.
For B9, the Kd was determined as 18000 nM.
In the case of B10, the affinity, expressed as Kd, was 9100 nM.
B7 showed a Kd of 190 nM.
B8: the Kd came to 3600 nM.

For a further assay the target is unchanged. The experiment in a line: SPR ProteOn XPR36, multi-cycle kinetics, TCR-zipper immobilized.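 Note: monovalent His-tagged ISVD constructs flowed at six concentrations over amine-coupled TCR on a GLC chip, 120 s association, 600 s dissociation, double-referenced, fitted to 1:1 Langmuir model.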
Method: Binding of purified, monovalent TCE-FLAG3-HIS6 and TCE-HIS6 ISVD constructs to human TCRαβ-zipper protein (huTCR(2XN9)-zipper, in-house produced) and cynomolgus TCRαβ-zipper protein (cyTCR(AEA41865)-zipper, in-house produced) was probed by Surface Plasmon Resonance (SPR) (Bio-rad Laboratories, Inc., ProteOn XPR36). Both targets were immobilized on a GLC sensor chip (short matrix, normal capacity) using standard amine coupling chemistry. ISVD constructs were injected at 6 different concentrations in a multi-cycle kinetics (MCK) experiment. Each concentration of the ISVDs was injected for 120s and dissociation was assessed during 600s.
Data was double referenced by subtracting a reference analyte lane and a blank buffer injection. Affinity constants (ka, kd and KD) were calculated applying the Langmuir 1:1 interaction model using the ProteOn Manager 3.1.0 (Bio-rad Laboratories, Inc., Version 3.1.0.6).
In the case of B11, the “KD ratio cy/huTCR” value stood at 3.9, the “KD ratio vs ref” value was 1.9, the Kd came out at 15 nM and the koff amounted to 0.0035 s⁻¹. The same molecule came in with a kon of 230000 M⁻¹ s⁻¹.
B12: the “KD ratio cy/huTCR” value came to 4, the “KD ratio vs ref” value worked out at 2.5, the Kd was 20 nM and the koff was determined as 0.0033 s⁻¹. In addition, the kon turned out to be 170000 M⁻¹ s⁻¹.
Consider B13, for which the “KD ratio cy/huTCR” value worked out at 4.3, the “KD ratio vs ref” value is 2.4, the Kd was 19 nM and the koff was 0.0035 s⁻¹. Also, the kon is 180000 M⁻¹ s⁻¹.
In the case of B14, the “KD ratio cy/huTCR” value amounted to 3.1, the “KD ratio vs ref” value was 133, binding was put at a Kd of 1100 nM and the koff was 0.034 s⁻¹. This molecule also gave a kon of 32000 M⁻¹ s⁻¹.
The like results for B15 were, in that order, 3.8, 2.1, 17 nM, 0.0035 s⁻¹ and 210000 M⁻¹ s⁻¹.
For B16, the “KD ratio cy/huTCR” value worked out at 2.5, the “KD ratio vs ref” value came to 43, the Kd is 350 nM and the koff turned out to be 0.018 s⁻¹. This molecule also had a kon of 51000 M⁻¹ s⁻¹.
Take B17: the “KD ratio cy/huTCR” value is 4, the “KD ratio vs ref” value worked out at 2.1, binding was put at a Kd of 17 nM and the koff was 0.0034 s⁻¹. The kon was 210000 M⁻¹ s⁻¹.
The like results for B18 were, in that order, 2, 246, 2000 nM, 0.093 s⁻¹ and 47000 M⁻¹ s⁻¹.
The matching figures for B19: 3.8, 2.3, 19 nM, 0.0035 s⁻¹ and 180000 M⁻¹ s⁻¹.

The term Kd denotes the concentration at which binding is half-saturated. A high value points to a looser complex. What is called koff is the first-order rate constant of dissociation. A lower koff goes with slow dissociation. What is called kon is the second-order rate constant of association. Lower therefore signals slower complex formation.
